# Residue numbers refer to the chain shown, from its start.
# T1: human IL2v G4S avi his (P1AG0879) (human)
# T1 chain: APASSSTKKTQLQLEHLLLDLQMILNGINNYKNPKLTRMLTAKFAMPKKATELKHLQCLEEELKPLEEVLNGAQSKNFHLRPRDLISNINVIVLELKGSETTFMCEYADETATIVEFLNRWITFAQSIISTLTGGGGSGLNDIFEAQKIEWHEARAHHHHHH
# B1: P1AA6888 one-shot humanized PD1-0103 (antibody)
# chain 1: not shown
# chain 2: DIVMTQSPDSLAVSLGERATINCKASESVDTSDNSFIHWYQQKPGQSPKLLIYRSSTLESGVPDRFSGSGSGTDFTLTISSLQAEDVAVYYCQQNYDVPWTFGQGTKVEIKRTVAAPSVFIFPPSDEQLKSGTASVVCLLNNFYPREAKVQWKVDNALQSGNSQESVTEQDSKDSTYSLSSTLTLSKADYEKHKVYACEVTHQGLSSPVTKSFNRGEC
# B2: P1AI0357 PD1-1030-VH_I58T (antibody, V domains shown)
# VH: EVQLLESGGGLVQPGGSLRLSCAASGFSFSSYTMSWVRQAPGKGLEWVATISGGGRDTYYPDSVKGRFTISRDNSKNTLYLQMNSLRAEDTAVYYCVLLTGRVYFALDSWGQGTLVTVSS
# VL: DIVMTQSPDSLAVSLGERATINCKASESVDTSDNSFIHWYQQKPGQSPKLLIYRSSTLESGVPDRFSGSGSGTDFTLTISSLQAEDVAVYYCQQNYDVPWTFGQGTKVEIKR
# B3: P1AI0360 PD1-1030-VH_Y60F_D62E (antibody, V domains shown)
# VH: B2 VH with T58I, Y60F, D62E
# VL: B2 VL
# B4: P1AI0359 PD1-1030-VH_P61A (antibody, V domains shown)
# VH: B2 VH with T58I, P61A
# VL: B2 VL
# B5: P1AI0356 PD1-1030-VH_I58L_D62E (antibody, V domains shown)
# VH: B2 VH with T58L, D62E
# VL: B2 VL
# B6: P1AI0358 PD1-1030-VH_I58T_P61A (antibody, V domains shown)
# VH: B2 VH with P61A
# VL: B2 VL
# B7: P1AH4160 PD1-376_VL7_VH1_2_4 (antibody, V domains shown)
# VH: B2 VH with L5V, S28T, A49S, T50A, T58I
# VL: B2 VL with S55E, L58Q
# B8: P1AH4161 PD1-376_VL2_VH1_2_3_4 (antibody, V domains shown)
# VH: B2 VH with L5V, S28T, T33A, A49S, T50A, T58I
# VL: B2 VL with S55A
# B9: P1AH4159 PD1-376_VL2_7_VH4 (antibody, V domains shown)
# VH: B2 VH with A49S, T50A, T58I
# VL: B2 VL with S55A, L58Q
# B10: P1AH4158 PD1-376_VL7_VH4 (antibody, V domains shown)
# VH: B2 VH with A49S, T50A, T58I
# VL: B2 VL with S55E, L58Q
# B11: P1AH4157 PD1-376_VL2_VH4 (antibody, V domains shown)
# VH: B2 VH with A49S, T50A, T58I
# VL: B2 VL with S55A
# B12: P1AG9606 PD1 IgG-IL2v aIL2 MT204 scFv-PQARK (antibody)
# chain 1: EVQLLESGGGLVQPGGSLRLSCAASGFSFSSYTMSWVRQAPGKGLEWVATISGGGRDIYYPDSVKGRFTISRDNSKNTLYLQMNSLRAEDTAVYYCVLLTGRVYFALDSWGQGTLVTVSSASTKGPSVFPLAPSSKSTSGGTAALGCLVKDYFPEPVTVSWNSGALTSGVHTFPAVLQSSGLYSLSSVVTVPSSSLGTQTYICNVNHKPSNTKVDKKVEPKSCDKTHTCPPCPAPEAAGGPSVFLFPPKPKDTLMISRTPEVTCVVVDVSHEDPEVKFNWYVDGVEVHNAKTKPREEQYNSTYRVVSVLTVLHQDWLNGKEYKCKVSNKALGAPIEKTISKAKGQPREPQVCTLPPSRDELTKNQVSLSCAVKGFYPSDIAVEWESNGQPENNYKTTPPVLDSDGSFFLVSKLTVDKSRWQQGNVFSCSVMHEALHNHYTQKSLSLSPG
# chain 2: B1 chain 2
# modifications: PD1-binding arm; immunoconjugate, knob chain SEQ59 carries masked IL2v
# B13: P1AI1651 PD1-376_VL2_VH4_P61A (antibody, V domains shown)
# VH: B2 VH with A49S, T50A, T58I, P61A
# VL: B2 VL with S55A
# B14: P1AI1652 PD1-376_VL2_VH4_Y60F_D62E (antibody, V domains shown)
# VH: B2 VH with A49S, T50A, T58I, Y60F, D62E
# VL: B2 VL with S55A
# B15: P1AI1649 PD1-376_VL2_VH4_I58T (antibody, V domains shown)
# VH: B2 VH with A49S, T50A
# VL: B2 VL with S55A
# B16: P1AI1650 PD1-376_VL2_VH4_I58T_P61A (antibody, V domains shown)
# VH: B2 VH with A49S, T50A, P61A
# VL: B2 VL with S55A
# B17: P1AI1648 PD1-376_VL2_VH4_I58L_D62E (antibody, V domains shown)
# VH: B2 VH with A49S, T50A, T58L, D62E
# VL: B2 VL with S55A
# B18: P1AF7506 OA MT204 IgG PG LALA (antibody, V domains shown)
# VH: EVQLVESGGGLVQPGGSLRLSCAASGFTFSSYTLAWVRQAPGKGLEWVAAIDSSSYTYSPDTVRGRFTISRDNAKNSLYLQMNSLRAEDTAVYYCARDSNWDALDYWGQGTTVTVSS
# VL: DIQMTQSPSSLSASVGDRVTITCKASQNVGTNVGWYQQKPGKAPKALIYSASFRYSGVPSRFSGSGSGTDFTLTISSLQPEDFATYYCQQYYTYPYTFGGGTKVEIKR
# B19: P1AH2052 MT204_VL1b-combo VH2 & VH6 IgG PG LALA (antibody, V domains shown)
# VH: B18 VH with R64K, A74S, S77T
# VL: B18 VL with K24R, N28G, A46L, R54L
# B20: P1AH2050 MT204_VL1-combo VH2 & VH6 IgG PG LALA (antibody, V domains shown)
# VH: B18 VH with R64K, A74S, S77T
# VL: B18 VL with K24R, N28G
# B21: P1AH2051 MT204_VL1a-combo VH2 & VH6 IgG PG LALA (antibody, V domains shown)
# VH: B18 VH with R64K, A74S, S77T
# VL: B18 VL with K24R, N28G, R54L
# Molecular target: huPD1-ECD_Fc-knob/hole (P1AD9704) (human)
# Test: SPR, 25C
row,Kd [pM],Binder
1,300,B1
2,200,B2
3,300,B3
4,200,B4
5,200,B5
6,300,B6

# Molecular target: huPD1-ECD_Fc-knob/hole (P1AD9704) (human)
# Test: SPR, 25C
# Remark: another data set of the same source
row,Kd [pM],Binder
1,200,B1
2,1200,B7
3,400,B8
4,200,B9
5,1500,B10
6,200,B11

# Molecular target: huPD1-ECD_Fc-knob/hole (P1AD9704) (human)
# Test: SPR, 25C
# Remark: another data set of the same source
row,Kd [pM],Binder
1,190,B12
2,114,B13
3,162,B14
4,111,B15
5,127,B16
6,144,B17
7,126,B11

# Molecular target: T1, human IL2v G4S avi his (P1AG0879)
# Test: SPR, 25C
row,Kd [pM],Binder
1,270,B18
2,995,B19
3,427,B20
4,101,B21

# Source: patent US20260345804 (published 2026)
